According to publication PMC10184575, “Development of an Anti-canine PD-L1 Antibody and Caninized PD-L1 Mouse Model as Translational Research Tools for the Study of Immunotherapy in Humans” (Cancer Research Communications, 2023):

Biological target: T1, 6X His-tagged extracellular domain of canine PD-L1 (canine, UniProt E2RKZ5)
T1 construct: canine PD-L1 (CD274), extracellular domain; also called cPD-L1-His; His-tagged cPD-L1 protein; source: ExpiCHO cell system, purified (Ni-NTA agarose)
Assay: BLI; Octet RED384; His-tagged cPD-L1 loaded on NTA biosensor at 200 nmol/L; 12C10E4 antibody at 50, 100, 200 nmol/L in kinetic buffer
Conditions: both partners purified

T1 sequence (E2RKZ5 entry or part of it): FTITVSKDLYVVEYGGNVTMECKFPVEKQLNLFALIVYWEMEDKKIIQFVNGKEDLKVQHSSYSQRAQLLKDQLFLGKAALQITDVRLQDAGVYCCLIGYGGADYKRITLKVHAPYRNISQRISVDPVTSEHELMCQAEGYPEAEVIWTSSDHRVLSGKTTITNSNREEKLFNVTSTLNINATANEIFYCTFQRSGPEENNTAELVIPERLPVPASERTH

Kd: 8.6 nM
B1: 12C10E4 chimeric antibody (12C10E4-cIgG; murine variable regions, canine IgG2 and canine kappa constant regions) (antibody, V domains shown)
VH: QVQLKQSGPGLVQPSQSLSITCTISGFSLTSFGVHWVRQSPGKGLEWLGVIWSGGSTDYNAAFTSRLSINKDNSKSQVFFKMNSLQADDTAIYYCARGGGPDWYFDVWGTGTTVTVSS
VL: DIVLTQSPASLAVSLGQRATISCRASESVEYYGTSLMQWYQQKPGQPPKLLIFAASNVKSGVPARFSGSGSGTDFSLNIHPVEEDDIAMYFCQQSGKVPHTFGGGTKLEIK
notes: VH of the mouse hybridoma 12C10E4; canine IgG2 heavy constant chain (called equivalent to human IgG1); VL of the mouse hybridoma 12C10E4; canine kappa light constant chain; also called 12C chimeric antibody; 12C cPD-L1 chimera antibody; source: ExpiCHO-S, transfected, purified (protein A agarose)
